Article PMC7430590 (bioRxiv, 2020)

Assays:
[1] = target: Fc fusion protein of the RBD-SD1 region of SARS-CoV (SARS-CoV, strain not named, UniProt P59594); test: ELISA
[2] = target: receptor binding domain (RBD; residues 319–541) of the SARS-CoV-2 spike (S) protein (SARS-CoV-2, UniProt P0DTC2); test: crystal structure
[3] = target: SARS-CoV-2 S protein-RBD-mFc (SARS-CoV-2, early reference sequence …, UniProt P0DTC2); test: SPR

B1: CV38–142 (antibody, V domains shown)
VH: EVQLVQSGAEVKKPGESLKISCQGSGYSFTSYWIGWVRQMPGKGLEWMGIIYPGESDTRYSSSFQGHVTISADKSISTAYLQWSSLKASDTAMYYCARIRGVYSSGWIGGDYWGQGTLVTVSS
VL: not shown
[1]
  binding result: binds

B2: CV07–270 Fab (Fab, V domains shown)
VH: QVQLVESGGGLVKPGGSLRLSCAASGFTFSDYYMTWIRQAPGKGLEWVSYISSSGSTIYYADSVKGRFTISRDNAKNSLYLQMNSLRAEDTAVYYCARARGSSGWYRIGTRWGNWFDPWGQGTLVTVSS
VL: QSALTQPASVSGSPGQSITISCTGTSSDVGGYNYVSWYQQHPGKAPKLMIYEVSNRPSGVSNRFSGSKSGNTASLTISGLQAEDEADYYCSSYTSSSNVVFGGGTMLTVL
[2]
  binding result: binds

B3: CV07–209 (antibody, V domains shown)
VH: QVQLVESGGGLVKPGGSLRLSCAASGFTFSDYYMSWIRQAPGKGLEWVSYISSSVSTIYYADSVKGRFTISRDNAKNSLYLQMNSLRAEDTAVYYCARDGVIPPRFDYWGQGTLVTVSS
VL: not shown
[3]
  Kd: 6 pM
